Test results as given in patent US20240122985A1, “ANTIBODIES, COMBINATIONS COMPRISING ANTIBODIES, BIOMARKERS, USES & METHODS” (KYMAB LIMITED, priority 2016, published 2024).

T1: CHO-S expressed hOX40L (Homo sapiens, UniProt P23510)
T1 construct: CHO-S cells (optionally transfected with full length human OX40L); expressed in transfected cells
T1 sequence (P23510 1-183): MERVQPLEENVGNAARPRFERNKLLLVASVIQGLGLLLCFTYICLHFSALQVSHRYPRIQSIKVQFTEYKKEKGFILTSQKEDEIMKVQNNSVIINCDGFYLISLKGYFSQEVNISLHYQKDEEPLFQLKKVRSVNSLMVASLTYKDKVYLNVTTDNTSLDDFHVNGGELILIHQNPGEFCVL

B1: 9H04 (hybridoma): anti-OX40L antibody from hybridoma; VH Seq ID No:66, VL Seq ID No:80 (antibody, V domains shown)
VH: QVQLVESGGGLVKPGGSLRLSCAASRFTLSDYYMTWIRQAPGKGLEWVSYISSSGNTIYYADSVKGRFTISRDNAKNSLYLQMNSLRAEDTAVYYCARDLSGSYWDYYYGMDVWGQGTTVTVSS
VL: AIQLTQSPSSLSTSVGDRVTIACRASQGINNALAWYQQKPGKAPKLLIYDASSLESGVPSRFSGSGSGTDFTLTISSLQPEDFATYYCQQFNSYPRTFGQGTKVEIK
modifications: 09H04 - VH Amino Acid Sequence; 09H04 - VL Amino Acid Sequence
B2: 10A07 (hybridoma): murine/human chimeric anti-OX40L antibody purified from hybridoma supernatant (antibody, V domains shown)
VH: EVQLVESGGVLVQPGGSLRLSCAASGFTFSSYIMTWVRQAPGKGLEWVSGISGSGGGTYYADSMKGRFTISRDNSKNTLYLQMNSLRVEDTAVYYCAKDRLGPITLVRGGYYYGMDVWGQGTTVTVSS
VL: DIQMTQSPSSLSASVGDRVTITCRASQSISDYLNWYQQKPGKAPKFLIYAASSLQSGVPSRFSGSGSGTDFTLTVSSLQPEDFATYYCQQSYSTPRTFGQGTRVEIK
B3: 10A07 (human): fully human anti-human OX40L monoclonal antibody; VH Seq ID No:2, VL Seq ID No:16 (antibody, V domains shown)
VH: B2 VH
VL: B2 VL
modifications: 10A07 - VH Amino Acid Sequence; 10A07 - VL Amino Acid Sequence
B4: 2D10 (hybridoma): murine/human chimeric anti-OX40L antibody purified from hybridoma supernatant (antibody, V domains shown)
VH: EVQLVESGGGLVQPGGSLRLSCAASGFTFSNYAMNWVRQAPGKGLEWVSTISGSGGATRYADSVKGRFTISRDNSRNTVYLQMNSLRVEDTAVFYCTKDRLIMATVRGPYYYGMDVWGQGTTVTVSS
VL: DIQMTQSPSSLSASVGDRVTITCRASQSISSYLNWYQQKPGKAPNLLIYAASSLQSGVPSRFSGSGSETDFTLTISSLQPEDFATYYCQQSHSVSFTFGPGTKVDIK

Experiments:
[1] = test system: Rhesus Macaque Graft versus Host Disease (GvHD) model; conditions: Example 9, post-HSCT prophylaxis, Rhesus macaque (FIG. 7)
Excerpt: The effectiveness of antibody 2D10 IgG4PE as a monotherapy prophylactic for the prevention of GvHD was examined in a Rhesus Macaque model of haploidentical hematopoietic stem cell transplantation (HSCT).
All transplants were between half-sibling pairs that are mismatched at one MHC haplotype (“haploidentical-HCTs”). Recipient animals had irradiation based pre-myeloablative pre-transplant conditioning using a linear accelerator. Dose rate: 7cGy/min. Dose 1020 cGy given in 4 fractions. The leukapheresis donor animal underwent GCSF mobilisation and underwent leukapheresis using a Spectra Optia apheresis machine.
2D10 IgG4PE was dosed at 10 mg/kg i.v. according to a planned dosing schedule to take place on Day −2, Day+5, Day+12, Day+19, Day+26, Day+33, Day+40, Day+47 post-transplant.
Samples were taken during the course of the study to monitor donor chimerism (Table 4) and white blood cell counts. The primary end point was based on survival, with a survival to 15 days deemed to be a sign of successful prophylactic therapy (and compared to the documented survival of 6-8 days with no prophylaxis; Miller et al. 2010, supra). Though full pathology and histology with GvHD grading scores, markers of T-cell proliferation and activation (such as Ki-67 and granzyme B) and gene array analysis are planned, they were not available for inclusion at the time of drafting.
Scoring of clinical symptoms was based on observational assessments and clinical chemistry, classified according to the criteria set out in Table 5.
A further rhesus macaque GvHD study was conducted to determine the effect of combined post-HSCT prophylaxis with 2D10 IgG4PE and rapamycin. The study was performed as described in Example 7, with dosing as follows: 2D10 IgG4PE was administered i.v. at 10 mg/kg on Day −2, Day +5, Day+12, Day+19, Day+26, Day+33, Day+40, Day+47 and Day+56 post-transplant. Rapamycin was administered at a loading dose of 0.1 mg/kg i.m. on Day −14, followed by daily i.m. maintenance doses of 0.025 mg/kg until the scheduled termination of the study at Day+100. Rapamycin dosing was adjusted to maintain serum trough levels within the range 5-15 ng/mL.
This was a cohort study in NHP designed to determine the clinical, immunologic and molecular outcomes of OX40L blockade during allogeneic HCT. Two cohorts of transplant recipients were studied: (1) Allogeneic transplants using the OX40L-blocking human IgG4-PE antibody 1D05 (described as ‘KY1005’ in this Example 11) as monotherapy for GVHD prophylaxis (abbreviated as ‘KY1005’; n=4). KY1005 was given at a dose of 10 mg/kg starting on Days −2 and then once weekly until discontinuation on Days 54 (FIG. 8E). […] (2) Allogeneic transplants using KY1005 in combination with Sirolimus (Rapamycin) ([…]) for GVHD prophylaxis (abbreviated as ‘KY1005/Siro’; n=5). KY1005 was given at a dose of 10 mg/kg starting on Days −2 and then once weekly until discontinuation on Days 54 (FIG. 8P). […] These two OX40L-blockade groups were compared to the following cohorts, aspects of which have been described previously (Furlan et al., 2015; Furlan et al., 2016; Miller et al., 2010) (1) Autologous transplants (abbreviated as ‘Auto’, n=6 for clinical and flow cytometric data and n=4 for transcriptomic analysis) (2); Allogeneic transplants with no GVHD prophylaxis (abbreviated as‘No Rx’, n=11 for clinical and flow cytometric data and n=4 for transcriptomic analysis). (3) Allogeneic transplants using Sirolimus monotherapy for GVHD prophylaxis (LC laboratories, abbreviated as ‘Siro’, n=11 for flow cytometric analysis, n=4 for transcriptomic analysis).

CHO-S expressed hOX40L = target: T1, CHO-S expressed hOX40L; test: Binding to CHO-S expressed hOX40L and receptor neutralisation (FACS); type: cell-based
Experimental: CHO-S cells expressing hOX40L or untransfected CHO-S cells, diluted in FACS buffer (PBS+1% w/v BSA+0.1% w/v NaN3) were distributed to a 96 well V-bottom plate (Greiner) at a density of 1×10^5 cells per well. Cells were washed with 150 μL of PBS and centrifuged at 300×g for 3 min. Supernatant was aspirated and 150 μL of PBS added. This wash step was repeated.
25 μL of hybridoma supernatant or purified antibody from hybridoma supernatant diluted in FACS buffer was added to the washed cells and incubated for 10-15 minutes. Reference Antibody or mouse IgG1 control antibody (Sigma) were diluted in FACS buffer to 20 μg/mL and 25 μL added to cells. 25 μL of human OX40R Fc (in-house) diluted to 1000 ng/mL in FACS buffer were then added to wells. Cells were incubated at 4° C. for 30 minutes.
To detect antibody and receptor binding, 50 μL of Goat anti-human IgG-PE (Jackson ImmunoResearch) and APC anti-mouse IgG (Jackson ImmunoResearch) diluted 1 in 500 in FACS buffer was added to the cells. Cells were incubated 30 minutes at 4° C. in the dark.
To fix cells 100 μL 2% v/v paraformaldehyde was added and cells incubated for 30 minutes at 4° C., cells were pelleted by centrifugation 300×g and the plates and resuspended in 50 μL of FACS buffer. PE and APC signal intensity (geomean) was measured by flow cytometry using a BD FACS Array instrument.
% of control binding was calculated using geomean fluorescence as described in equation 1 where total binding was defined as reference antibody at 10 μg/mL and non-specific binding as mouse IgG1 antibody at 10 μg/mL. % receptor binding was calculated using Equation 3.

recombinant hOX40L = target: T2, recombinant hOX40L (Homo sapiens, UniProt P23510); test: Surface plasmon resonance, apparent affinity to human OX40L; type: binding; conditions: SPR, 25° C.; CNROR = Cannot resolve off-rate
T2 construct: cDNA encoding the extracellular domain of human OX40L was cloned into a pREP4 expression plasmid; isoleucine zipper (N); made in house; host or cells: FreeStyle CHO-S (transient)
T2 sequence (P23510 with tags, fused parts or gaps): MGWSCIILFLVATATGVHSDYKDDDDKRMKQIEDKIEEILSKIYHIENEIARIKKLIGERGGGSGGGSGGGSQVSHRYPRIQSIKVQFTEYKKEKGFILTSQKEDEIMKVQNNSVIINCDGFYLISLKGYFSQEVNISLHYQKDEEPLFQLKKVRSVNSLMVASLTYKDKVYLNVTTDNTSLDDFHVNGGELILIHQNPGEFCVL
Experimental: (§1) SPR analysis was carried out using the ProteOn™ XPR36 Array System (BioRad). Anti-mouse IgG (GE Healthcare BR-1008-38) was immobilised on a GLM biosensor surface using amine coupling, the surface was then blocked using 1 M ethanolamine. Test antibodies were captured on this surface and recombinant hOX40L (human and rhesus) were used at a single concentration of 256 nM, binding sensorgrams were double referenced using a buffer injection (i.e. 0 nM) to remove baseline drift and injection artefacts. Apparent affinities for the OX40L-antibody interaction were determined using the 1:1 model inherent to the ProteOn XPR36 analysis software. The assay was run using HBS-EP (Teknova) as running buffer and carried out at 25° C.

Rhesus monkey OX40L = test: Surface plasmon resonance, apparent affinity to rhesus OX40L; type: binding, Rhesus (Macaca mulatta); conditions: SPR, 25° C.; CNROR = Cannot resolve off-rate
Sequence of Rhesus monkey OX40L (as listed by the source): as the sequence (P23510 with tags, fused parts or gaps) above, with R77Q, K95E counted along it
Experimental: as §1

Molecule | median survival time, MST [1] [days] | FACS Binding (CHO-S expressed hOX40L) | Apparent Affinity hOX40L (nM) (recombinant hOX40L) | Apparent Affinity RhsOX40L (nM) (Rhesus monkey OX40L)
CO[C@H]1C[C@@H]2CC[C@@H](C)[C@@](O)(O2)C(=O)C(=O)N2CCCC[C@H]2C(=O)O[C@H]([C@H](C)C[C@@H]2CC[C@@H](O)[C@H](OC)C2)CC(=O)[C@H](C)/C=C(\C)[C@@H](O)[C@@H](OC)C(=O)[C@H](C)C[C@H](C)/C=C/C=C/C=C/1C [rapamycin, rapamycin (sirolimus), reference compound] | 17 | – | – | –
B1 | – | YES | – | –
B2 | – | YES | CNROR | CNROR
B3 | – | – | CNROR | CNROR
B4 | – | YES | CNROR | CNROR
